Measurements published in patent US20240109967A1 (University of Pennsylvania, published 2024).

T1: recombinant human CD86-Fc chimera (carrier free, BioLegend) (human, UniProt P42081 24-247)
T1 construct: Commercial protein; also called huCD86-Fc; huCD86; not shown: Fc of the commercial chimera, not described
T1 sequence (looked up): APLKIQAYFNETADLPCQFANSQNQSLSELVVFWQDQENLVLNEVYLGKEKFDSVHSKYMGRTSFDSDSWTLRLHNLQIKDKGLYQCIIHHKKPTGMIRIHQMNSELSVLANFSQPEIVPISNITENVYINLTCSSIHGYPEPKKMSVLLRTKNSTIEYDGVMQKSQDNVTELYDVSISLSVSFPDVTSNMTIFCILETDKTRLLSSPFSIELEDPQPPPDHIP

T2: recombinant human CD80-Fc chimera (carrier free, BioLegend) (human, UniProt P33681 35-242)
T2 construct: Commercial protein; also called huCD80-Fc; huCD80; not shown: Fc of the commercial chimera, not described
T2 sequence (looked up): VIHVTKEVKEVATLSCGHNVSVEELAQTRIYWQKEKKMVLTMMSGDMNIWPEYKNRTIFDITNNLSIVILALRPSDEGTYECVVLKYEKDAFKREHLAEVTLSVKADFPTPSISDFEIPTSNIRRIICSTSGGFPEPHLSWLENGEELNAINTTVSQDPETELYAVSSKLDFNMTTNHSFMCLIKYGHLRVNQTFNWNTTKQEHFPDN

B1: recombinant canine CTLA-4 extracellular domain protein (receptor, not shown: small tags and cut ends)
chain: KGMHVAQPAVVLASSRGVASFVCEYGSSGNAAEVRVTVLRQAGSQMTEVCAATYTVEDELAFLDDSTCTGTSSGNKVNLTIQGLRAMDTGLYICKVELMYPPPYYVGMGNGTQIYVIDPEPCPDSD
modifications: biotin on the Avi tag (BirA ligase) in the ELISA, panning and interaction assays
notes: Cloned into pFUSE containing an HA tag, made in 293T cells; The SPR analyte is called soluble cCTLA-4 ECD, and biotinylation is not mentioned there; also called cCTLA-4; cCTLA-4 ECD
B2: A1mut2 full-length canine IgG1 (IgGA) mAb (antibody)
heavy: EVQLVETGGDLVKPGGSLRLSCVASGFSFSSYAMNWVRQAPEKGLQLVGGINSGGSSTYYTDAVKGRFTISRDNAKNTVYLQMNSLRAEDTAVYYCAISNWAYWGQGTLVTVSSASTTAPSVFPLAPSCGSTSGSTVALACLVSGYFPEPVTVSWNSGSLTSGVHTFPSVLQSSGLYSLSSMVTVPSSRWPSETFTCNVVHPASNTKVDKPVFNECRCTDTPPCPVPEPLGGPSVLIFPPKPKDILRITRTPEVTCVVLDLGREDPEVQISWFVDGKEVHTAKTQSREQQFNGTYRVVSVLPIEHQDWLTGKEFKCRVNHIDLPSPIERTISKARGRAHKPSVYVLPPSPKELSSSDTVSVTCLIKDFYPPDIDVEWQSNGQQEPERKHRMTPPQLDEDGSYFLYSKLSVDKSRWQQGDPFTCAVMHETLQNHYTDLSLSHSPGKGGGSGGGSYPYDVPDYA
light: QAVLNQPASVSGSLGQRVTISCTGSSSDIGKSYVAWYQQLPGTGPRTLINVDGNRASGVPDRFSVSRSGNTATLTISGLQAEDEADYHCSSWDWSLHTYVFGSGTQLTILGQPKASPSVTLFPPSSEELGANKATLVCLISDFYPSGVTVAWKADGSPITQGVETTKPSKQSNNKYAASSYLSLTPDKWKSHSSFSCLVTHEGSTVEKKVAPAECS
notes: The HA tag is said to be appended to the carboxyl termini of the full-length IgGs and is placed here on the heavy chain; also called A1mut2 mAb; A1mut2 antibody
B3: A1mut2 full-length canine IgG4 (IgGD) mAb, HA-tagged (antibody)
heavy: EVQLVETGGDLVKPGGSLRLSCVASGFSFSSYAMNWVRQAPEKGLQLVGGINSGGSSTYYTDAVKGRFTISRDNAKNTVYLQMNSLRAEDTAVYYCAISNWAYWGQGTLVTVSSASTTAPSVFPLAPSCGSTSGSTVALACLVSGYFPEPVTVSWNSGSLTSGVHTFPSVLQSSGLYSLSSMVTVPSSRWPSETFTCNVVHPASNTKVDKPVPKESTCKCISPCPVPESLGGPSVFIFPPKPKDILRITRTPEITCVVLDLGREDPEVQISWFVDGKEVHTAKTQPREQQFNSTYRVVSVLPIEHQDWLTGKEFKCRVNHIGLPSPIERTISKARGQAHQPSVYVLPPSPKELSSSDTVTLTCLIKDFFPPEIDVEWQSNGQPEPESKYHTTAPQLDEDGSYFLYSKLSVDKSRWQQGDPFTCAVMHEALQNHYTDLSLSHSPGKGGGSGGGSYPYDVPDYA
light: B2 light
notes: also called A1mut2 IgGD

Legend:
[1] = target: T1, recombinant human CD86-Fc chimera …; test: ELISA: biotinylated cCTLA-4 ECD on plate-bound human CD86-Fc, streptavidin-AP, no antibody
[2] = target: T2, recombinant human CD80-Fc chimera …; test: ELISA: biotinylated cCTLA-4 ECD on plate-bound human CD80-Fc, streptavidin-AP, no antibody
[3] = target: T3, human complement C1q (in normal human complement serum) (human, UniProt P02745 23-245; P02746 28-253; P02747 29-245); test: complement fixation ELISA: antibody on captured cCTLA-4, human serum complement, anti-human C1q HRP
T3 construct: also called human serum complement
T3 sequence (P02745 23-245 limits assumed, chain 1 of 3): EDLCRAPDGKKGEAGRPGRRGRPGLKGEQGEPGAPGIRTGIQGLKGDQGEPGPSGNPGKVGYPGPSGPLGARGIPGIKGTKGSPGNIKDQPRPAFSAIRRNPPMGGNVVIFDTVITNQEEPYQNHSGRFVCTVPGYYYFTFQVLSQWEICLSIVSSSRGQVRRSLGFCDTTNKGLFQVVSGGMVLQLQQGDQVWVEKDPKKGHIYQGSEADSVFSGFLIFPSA
T3 sequence (P02746 28-253 limits assumed, chain 2 of 3): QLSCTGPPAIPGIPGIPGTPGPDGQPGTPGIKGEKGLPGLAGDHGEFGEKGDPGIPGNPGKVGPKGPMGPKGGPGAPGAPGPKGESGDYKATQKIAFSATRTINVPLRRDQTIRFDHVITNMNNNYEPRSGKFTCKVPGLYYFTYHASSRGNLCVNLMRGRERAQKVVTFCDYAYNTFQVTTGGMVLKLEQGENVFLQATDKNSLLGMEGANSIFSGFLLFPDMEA
T3 sequence (P02747 29-245 limits assumed, chain 3 of 3): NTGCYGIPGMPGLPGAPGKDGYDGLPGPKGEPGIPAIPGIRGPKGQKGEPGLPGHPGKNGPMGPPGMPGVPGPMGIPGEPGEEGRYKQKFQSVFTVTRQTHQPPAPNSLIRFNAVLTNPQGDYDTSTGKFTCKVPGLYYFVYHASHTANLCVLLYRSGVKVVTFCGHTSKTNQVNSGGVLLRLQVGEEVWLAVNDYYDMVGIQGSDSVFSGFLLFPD

Row | Binder | binding result [1] | binding result [2] | binding result [3]
1 | B1 | binds | binds | –
2 | B2 | – | – | no binding (tested: 10 ug/ml antibody)
3 | B3 | – | – | no binding (tested: 10 ug/ml antibody)
